Holding throughout (type): binding
The target in test [1] is T1, endogenous phosphorylated Rab10 in human PBMC (Homo sapiens, UniProt P61026).
T1 construct: Strong endogenous phosphorylated Rab10 or phosphorylated Rab8a in human PBMC; host or cells: human PBMC
T1 sequence (P61026 1-200): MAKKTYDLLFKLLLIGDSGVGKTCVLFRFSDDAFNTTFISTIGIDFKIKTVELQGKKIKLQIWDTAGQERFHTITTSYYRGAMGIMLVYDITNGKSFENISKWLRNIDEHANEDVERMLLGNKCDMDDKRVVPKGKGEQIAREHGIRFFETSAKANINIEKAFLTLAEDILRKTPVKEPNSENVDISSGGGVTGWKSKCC
The test is described as follows: Western blot of human PBMC with anti-pT73-Rab10 antibodies. (In general: In western blotting, separated proteins are transferred to a membrane and probed.)

The target in test [2] is T2, phosphorylated Rab10 in lysates of HEK cells overexpressing LRRK2 (Homo sapiens, UniProt P61026).
T2 construct: expressed in transfected cells; host or cells: HEK cells overexpressing LRRK2
T2 sequence (P61026 1-200): T1 sequence (P61026 1-200)
The test is described as follows: Sandwich ELISA (diagnostic), HEK cells overexpressing LRRK2. As to the method:
Sandwich ELISA (Diagnostic) with Anti-Phospho-Rab10 Antibody as the Capture Antibody:
ELISA plates were prepared by coating white Nunc MaxiSorp 384 well plates (Thermo Fisher #460372/Sigma #P6491) with capture antibody for 1 hour at room temperature on a shaking platform. The capture antibody was purified anti-phospho-Rab10 clone 19-4 diluted to 1 ug/mL in carbonate-bicarbonate buffer, and 15 uL/well of coating solution was added to the plate before incubation. Plates were then washed 3× with TBST on a BioTek plate washer. For all subsequent blocking/incubation steps, Pierce Starting Block T20 (TBS) was used (Thermo Fisher #37543). Plates were blocked […] in this solution using 80 uL/well and washed 3× as before. Afterwards samples of cell lysates were added (neat with no dilution) using 30 uL/well and incubated 1 hour at room temperature on a shaking platform. After another 3× wash detection antibody (Creative Diagnostics DCABH 13141, or Abcam, ab104859, 2 ug/mL) was added using 30 uL/well. After 60 minute incubation at room temperature and washing 3×, the secondary anti-species conjugate was added (anti-rabbit HRP antibody (Jackson ImmunoResearch 111-035-144) diluted 1:20000 in assay diluent) at 30 uL/well. After a 60 minute incubation, plates were washed 3× as before. The HRP substrate (Supersignal ELISA Femto HRP substrate—Thermo Fisher #37075) was prepared during this time by mixing both components and equilibrating to room temperature. 50 uL/well of substrate was added to plates, which then were covered and briefly incubated for 1-2 minutes on a shaker platform. Afterwards plates were read on the Synergy plate reader to measure relative light units (RLU).
Sandwich ELISA (Diagnostic) with Anti-Rab10 (Total) Antibody as the Capture Antibody:
ELISA plates were prepared by coating white Nunc MaxiSorp 384 well plates (Thermo Fisher #460372/Sigma # P6491) with capture antibody overnight at 4° C. on a shaking platform. The capture antibodies (anti-Rab10 antibody from either Creative Diagnostics, DCABH-13141, or Abcam, ab104859) were diluted to […] (or 1:100 if the concentration not known) in carbonate-bicarbonate buffer, and 15 uL/well of coating solution was added to the plate before incubation. After this plates were washed 3× with TBST on a BioTek plate washer. For all subsequent blocking/incubation steps, Pierce Starting Block (TBS) (no Tween added) was used (Thermo Fisher #37542). Plates were blocked for 1 hour at room temperature in this solution using 80 uL/well and washed 3× as before. Afterwards samples were added (with lysates being diluted 1:20 in the assay diluent) using 30 uL/well and incubated 2 hours at room temperature on a shaking platform. After another 3× wash detection antibodies were added (diluted to 1 ug/mL for purified antibodies or 1:2 for supernatants) using 30 uL/well. After 90 minute incubation at room temperature and washing 3× the secondary anti-species conjugate was added (anti-rabbit HRP antibody (Jackson ImmunoResearch 111-035-144) diluted 1:20000 in assay diluent) at 30 uL/well. After a 45 minute incubation plates were washed 3× as before. The HRP substrate (Supersignal ELISA Femto HRP substrate—Thermo Fisher #37075) was prepared during this time by mixing both components and equilibrating to room temperature. 50 uL/well of substrate was added to plates, which then were covered and briefly incubated for 1-2 minutes on a shaker platform. Afterwards plates were read on the Synergy plate reader to measure relative light units (RLU).
For orientation: In an ELISA, binding on a coated surface is turned into a signal by an enzyme label.

The target of test [3] is T3, pT73-Rab10 (Homo sapiens, UniProt P61026).
T3 construct: Strong endogenous phosphorylated Rab10 or phosphorylated Rab8a in human PBMC; host or cells: human PBMC
T3 sequence (P61026 1-200): T1 sequence (P61026 1-200)
Put plainly: Phospho-Rab10 MSD assay (clone 19-4 as capture antibody). As to conditions: anti-total Rab10 antibody for detection.

Entries after “also recorded” stand apart in the source; their conditions may differ.

B1: Clone 19-4: anti-phosphorylated (pT73) Rab10 rabbit monoclonal antibody; VH SEQ ID NO:17, VL SEQ ID NO:18 (antibody, V domains shown)
VH: METGLRWLLLVAVLKGVQCQSVEESGGRLVTPGTPLTLTCTVSGFSLSSYAMVWVRQAPGKGLEYIGLISRSGVTYYATWAKGRFTISKASTTVDLKIASPTTGDTATYFCVRDYDSAGWSGFTIWGPGTLVTVSA
VL: MDTRAPTQLLGLLLLWLPGAICDPVMTQTPSSTSAAVGGTVTINCQSSQSVYGNNYLSWYQQKPGQPPKLLIYKASTLASGVPSRFVGSGSGTQFTLTISDLECDDAATYYCAGAASDTRFFGGGTELVVN
B1: the “detection of endogenous phosphorylated Rab10 signals in human PBMC by western blot” value in test [1] (antibody at 1 ug/ml, listed as 19-4) is given as “detected endogenous phosphorylated Rab signals; also recorded: Detection of phosphorylated Rab10”. For the same molecule, the “Western blot Human PBMC Ratio of DMSO/LRRK2 inhibitor A (mean ± SEM)” value in test [1] (band intensity normalized with Actin control for each of DMSO and LRRK2 inhibitor A, antibody 1 ug/ml) is listed as 2.95 ± 0.68. Besides, the “Sandwich ELISA (diagnostic), Ratio” value in test [2] (DMSO / LRRK2 inhibitor A RLU) is on record as 37.40. In addition, the “Sandwich ELISA (diagnostic) HEK cells overexpressing LRRK2, DMSO (RLU mean ± SD)” value in test [2] (DMSO treated cells) came to 80524 ± 7835 RLU. Also, the “Sandwich ELISA (diagnostic) HEK cells overexpressing LRRK2, LRRK2 inhibitor A (RLU mean ± SD)” value in test [2] (cells treated with LRRK2 inhibitor A) was determined as 2153 ± 774 RLU. The “pRab10 signals in phospho-Rab10 MSD assay” value in test [3] (human A549 cells, listed as 19-4) was “showed pRab10 signals”; in test [3] (human PBMCs), “showed pRab10 signals”.

These data come from patent US11661461B2, “Phospho-Rab antibodies, assays and methods of use thereof” (Denali Therapeutics Inc., priority 2017, dated 2023).
